US8557971B2, “Chimeric viral envelopes” (Aarhus Universitet, priority 2006, dated 2013)
Numbering of substitutions follows the chain as printed.

Tests used:
APJ = APJ (Homo sapiens (Human), UniProt P35414); assay: cell-based or functional assay
[1] = target: polytropic Xpr1 receptor on NIH3T3 murine cells (murine, UniProt Q9Z0U0); assay: cell-based or functional assay
D17 APJ = assay: Titer on D17 cells expressing APJ; type: cell-based, dog; conditions: for Titer, D17 APJ: Titer Experiment 1, D17 cells expressing APJ
Experimental: (§1) Transfections were done by calcium phosphate precipitation method, described by Graham and van der Eb (Graham and van der Eb, 1973) leaving the calcium precipitate on the cells for 24 hours. 293T cells were transfected using 8 μg of envelope expression plasmid, 2 μg gagpol expression plasmid (Morita et al., 2000) and 1 μg of an EGFP expressing plasmid. EGFP was included as a visual aid to determine the success of transfections. Medium on the transfected cells was renewed every day until it was used for transduction, usually between 48 and 72 hours after transfection, depending on the number of green fluorescing cells.
(§2) The day before transduction, medium was changed from fetal calf serum to newborn calf serum containing medium. Semi-packaging cells (Bahrami et al., 2003) were seeded at concentration of 10^4 cells/cm^2 24 hours before transduction.
(§3) Supernatant from transfected cells was filtered (0.22μ). The supernatant with 6 μg/mL polybrene was added to the target cells. 24 hours later, the infected cells were selected using medium described before containing 600 μg/mL G418 for 10 days.
The ability of redirecting the retroviral fusion machinery to a desired receptor would have wide biotechnological and potentially also nanotechnological applications. However, the regulatory mechanisms that interconnect receptor binding with fusion are poorly understood, which has made intelligent engineering of the envelope protein difficult. […] Using the envelope protein of the SL3-2 murine leukemia virus isolate (Pedersen et al., 1981) as a backbone and insertion of the 13 amino acid peptide ligand apelin by structure based design, we achieved efficient membrane fusion in a manner dependent upon APJ, the receptor for apelin (Fan et al., 2003; Kawamata et al., 2001) (FIG. 12). APJ belongs to the large family of G-protein-coupled receptors (GPCRs) involved in cell signaling with more than 1000 members in man (Puffer et al., 2000). All GPCRs are characterized by having 7 transmembrane helices (7-TM). Some of the receptors respond to peptide ligands such as apelin. […]

NIH 3T3 = assay: Titer (transduction) of chimeric envelope constructs on NIH 3T3 cells; type: cell-based, mouse; conditions: Titer Experiment 1; NIH 3T3 mouse cells
Experimental: as §1, §2, §3

NIH 3T3 MCF 247 = assay: Titer on NIH 3T3 cells infected with MCF 247 (blocked polytropic receptor); type: cell-based, mouse; conditions: Titer Experiment 1; NIH 3T3 infected with MCF 247
Experimental: FIG. 24. The SL3-2 chimeric envelopes can use two different receptors. […] NIH3T3: Murine cells, NIH3T3+MCF247: murine cells infected with MCF247, thus having a blocked polytropic receptor, D17: Dog cells, D17-APJ: Dog cells expressing APJ, D17-APJ-6 uM Apelin 13: Dog cells expressing APJ incubated with 6 uM apelin-13 peptide for 1 h.
as §1, §2
Supernatant from transfected cells was filtered (0.22μ). The supernatant with 6 μg/mL polybrene was added to the target cells. […]

D17 = assay: Titer on D17 dog cells; type: cell-based; conditions: for Titer, D17: Titer Experiment 1, D17 dog cells
Experimental: as §1, §2, §3

human cells = assay: Infection of human cells; type: cell-based; conditions: qualitative

B1: SL3-2/apelin chimeric envelope peptide, "Apelin@155 RT" (other)
chain: VQHDSPHQVFNVTWRVTNLMTGQTANATSLLGTMTDAFPKLYFDLCDLIGDDWDETGLGCRTPGGRKRARIFDFYVCPGHTVLAGCGGPREGYCGKWGCETTGQAYWKPSSSWDLISLKRGNTQGIYQCSGGSGQRPRLSHKGPMPFSGGSGCGPCYDSSVVSSSAQGATPGGRCNPLVLEFTDAGKRASWDASKAWGLRLYRSTRTDPVTRFSLTRQVLNIGPRVPIGPNPVIIDQLPPSRPVQVMLPRPPQPPPPGAASTVPETAPPSQQPGTGDRLLNLVNGAYQALNLTSPDKTQECWLCLVAGPPYYEGVAVLGTYSNHTSAPANCSVASQHKLTLSEVTGQGLCVGAVPKTHQALCNTTQKTSNGSYYLAAPAGTIWACNTGLTPCLSTTVLDLTTDYCVLVELWPKVTYHSPGYVYGQFEEKTKYKREPVSLTLALLLGGLTMGGIAAGVGTGTTALVATQQFQQLQAAMQDDLKEVEKSITNLERSLTSLSEVVLQNRRGLDLLFLKEGGLCAALKEECCFYADHTGLVRDSMAKLRERLSQRQKLFESQQGWFEGLFNKSPWFTTLISTIMGPLIILLLILLFGPCILNHLVQFIKDRVSVVQALVLTQQYHQLKTIEDCESRE
Titer on D17 APJ (Titer Experiment 1; unit not given) (APJ): 1750
Titer on NIH 3T3 (Titer Experiment 1; unit not given) [1]: 500000

B2: SL3-2/apelin chimeric envelope peptide, "Apelin@155 GI" (other)
chain: B1 chain with R206G, T207I
Titer on D17 APJ (Titer Experiment 1; unit not given) (APJ): 400
Titer on NIH 3T3 (Titer Experiment 1; unit not given) [1]: 750000

B3: AP@155: SL3-2 envelope with apelin inserted at position 155 (variant not specified) (protein)
chain: B1 chain with R206G, T207I
APJ-dependent entry / membrane fusion into D17 dog cells (D17 APJ; qualitative, FIG. 12): suboptimal relative to AP@165

B4: 155GI (protein)
chain: B1 chain with R206G, T207I
Titer, NIH 3T3 (NIH 3T3): 7.5 × 10^5
Titer, NIH 3T3 MCF 247 (NIH 3T3 MCF 247): 0.25 × 10^1
Titer, D17 (D17): 2.5
Titer, D17 APJ (D17 APJ): 4 × 10^2

B5: SL3-2GI (protein)
chain: VQHDSPHQVFNVTWRVTNLMTGQTANATSLLGTMTDAFPKLYFDLCDLIGDDWDETGLGCRTPGGRKRARIFDFYVCPGHTVLAGCGGPREGYCGKWGCETTGQAYWKPSSSWDLISLKRGNTPKGQGPCYDSSVVSSSAQGATPGGRCNPLVLEFTDAGKRASWDASKAWGLRLYRSTGIDPVTRFSLTRQVLNIGPRVPIGPNPVIIDQLPPSRPVQIMLPRPPQPPPPGAASTVPETAPPSQQPGTGDRLLNLVNGAYQALNLTSPDKTQECWLCLVAGPPYYEGVAVLGTYSNHTSAPANCSVASQHKLTLSEVTGQGLCVGAVPKTHQALCNTTQKTSNGSYYLAAPAGTIWACNTGLTPCLSTTVLDLTTDYCVLVELWPKVTYHSPGYVYGQFEEKTKYKREPVSLTLALLLGGLTMGGIAAGVGTGTTALVATQQFQQLQAAMQDDLKEVKKSITNLERSLTSLSEVVLQNRRGLDLLFLKEGGLCAALKEECCFYADHTGLVRDSMAKLRERLSQRQKLFESQQGWFEGLFNKSPWFTTLISTIMGPLIILLLILLFGPCILNHLVQFIKDRVSVVQALVLTQQYHQLKTIEDCESRE
Infection of dog cells (D17; qualitative): not dog cells
Infection of human cells (human cells): infects human cells

B6: SL3-2/apelin chimeric envelope polypeptide 'AP165 RT' (other)
chain: VQHDSPHQVFNVTWRVTNLMTGQTANATSLLGTMTDAFPKLYFDLCDLIGDDWDETGLGCRTPGGRKRARIFDFYVCPGHTVLAGCGGPREGYCGKWGCETTGQAYWKPSSSWDLISLKRGNTPKGQGPCYDSSGGSGQRPRLSHKGPMPFSGGSGSSSAQGATPGGRCNPLVLEFTDAGKRASWDASKAWGLRLYRSTRTDPVTRFSLTRQVLNIGPRVPIGPNPVIIDQLPPSRPVQVMLPRPPQPPPPGAASTVPETAPPSQQPGTGDRLLNLVNGAYQALNLTSPDKTQECWLCLVAGPPYYEGVAVLGTYSNHTSAPANCSVASQHKLTLSEVTGQGLCVGAVPKTHQALCNTTQKTSNGSYYLAAPAGTIWACNTGLTPCLSTTVLDLTTDYCVLVELWPKVTYHSPGYVYGQFEEKTKYKREPVSLTLALLLGGLTMGGIAAGVGTGTTALVATQQFQQLQAAMQDDLKEVEKSITNLERSLTSLSEVVLQNRRGLDLLFLKEGGLCAALKEECCFYADHTGLVRDSMAKLRERLSQRQKLFESQQGWFEGLFNKSPWFTTLISTIMGPLIILLLILLFGPCILNHLVQFIKDRVSVVQALVLTQQYHQLKTIEDCESRE
Titer on D17 APJ (Titer Experiment 1; unit not given) (APJ): 2.5e+06
Titer on NIH 3T3 (Titer Experiment 1; unit not given) [1]: 3e+06

B7: SL3-2/apelin chimeric envelope AP@165 GI (other)
chain: B6 chain with R200G, T201I
Titer on D17 APJ (Titer Experiment 1; unit not given) (APJ): 1.25e+06
Titer on NIH 3T3 (Titer Experiment 1; unit not given) [1]: 4e+06
Titer, NIH 3T3 (NIH 3T3): 4 × 10^6
Titer, NIH 3T3 MCF 247 (NIH 3T3 MCF 247): 0
Titer, D17 (D17): 1.25 × 10^1
Titer, D17 APJ (D17 APJ): 1.25 × 10^6
